According to patent US20110262529A1:

Tests used:
[1] = target: HLA-A*0201 (human), P04439
[2] = target: HLA-A*0201 (human), P04439; assay: T2 cell HLA-A*0201 stabilisation, affinity category by BL50

| Binder | BL50 (half-maximal binding level) [1] | BL50 [2] |
| --- | --- | --- |
| LLCVLAALV (modifications not checked) [pp1a-2755] | 187 µM | 100 to 200 µM |
| VLGSLAATV (modifications not checked) [pp1a-4219] | 53.3 µM | < 100 µM |
| QLSLPVLQV (modifications not checked) [pp1a-15] | 75.7 µM | < 100 µM |
| ALSGVFCGV (modifications not checked) [pp1a-2990] | 6.2 µM | < 100 µM |
| LLFITGNTL (modifications not checked) [pp1a-3745] | 154 µM | 100 to 200 µM |
| FLITGVFDI (modifications not checked) [pp1a-651] | 8.4 µM |  |
| AMWLLLLSI (modifications not checked) [pp1a-2207] | 323 µM |  |
| VLLSVLQQL (modifications not checked) [pp1a-3848] | 102 µM | 100 to 200 µM |
| KLSAGVEFL (modifications not checked) [pp1a-634] | 59.8 µM | < 100 µM |
| TLNEDLLEI (modifications not checked) [pp1a-445] | 19.2 µM |  |
| KLNIKLLGI (modifications not checked) [pp1a-3816] | 68.1 µM | < 100 µM |
| YLSSVLLAL (modifications not checked) [pp1a-1652] | 6.7 µM | < 100 µM |
| VLAWLYAAV (modifications not checked) [pp1a-3444] | 53 µM |  |
| FLNRFTTTL (modifications not checked) [pp1a-3459] | 39.6 µM |  |
| MLSRALKKV (modifications not checked) [pp1a-1288] | 65.1 µM | < 100 µM |
| TLGVLVPHV (modifications not checked) [pp1a-103] | 3.1 µM | < 100 µM |
| MLLTFLTSL (modifications not checked) [pp1a-3560] | 47.1 µM | < 100 µM |
| FLLPSLATV (modifications not checked) [pp1a-3616] | 31.8 µM |  |
| SLQVCVQTV (modifications not checked) [pp1a-1139] | 4.9 µM | < 100 µM |
| CLDAGINYV (modifications not checked) [pp1a-2187] | 3 µM | < 100 µM |
